Drawing on patent US20230250190A1 (published 2023), this text covers EC50 for 23 molecules.

Numbering of substitutions follows the chain as printed.

T1: T8 (Tn-MUC1) (PAPGST(α-GalNAc)APPAHGVTSAPDT(α-GalNAc)RPAPG-OH)
T1 peptide: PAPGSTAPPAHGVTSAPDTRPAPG

T2: T4 (Tn-MUC1) (PAPGSTAPPAHGVT(α-GalNAc)SAPDTRPAPG-OH)
T2 peptide: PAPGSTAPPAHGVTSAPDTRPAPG

T3: T11 (Tn-MUC1) (PAPGSTAPPAHGVT(α-GalNAc)SAPDT(α-GalNAc)RPAPG-OH)
T3 peptide: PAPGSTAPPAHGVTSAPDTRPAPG

T4: T9 (Tn-MUC1) (PAPGSTAPPAHGVT(α-GalNAc)S(α-GalNAc)APDTRPAPG-OH)
T4 peptide: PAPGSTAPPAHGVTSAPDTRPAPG

B1: 49 (antibody, V domains shown)
VH: QVQLVESGAEVKKPGASVKVSCKASGYTFTRYYLHWVRQAPGQGLEWMGVINPYGGATNYAQKFQGRVTLTRDTSTSTVYMELNSLRSEDTAVYFCARDAMEGNSYFDHWGPGTLVTVSS
B2: 130 (antibody, V domains shown)
VH: QVQLVQSGAEVKKPGASVRVSCKASGYTFINYYLQWVRQAPGQGLEWMGTINPFDGSTHYAQKFQGRVTLTRDTSTSTVYMELNSLRSDDTAVYYCARDYMIGYVLFDYWGQGTLVTVSS
B3: 70 (antibody, V domains shown)
VH: QVQLVQSGAEVKKPGASVKVSCKASGYAFPNYYIHWVRQAPGQGLEWMGVINPYGGSTNYAQKFQGRVTMTRGTSTSTVYLELSSLRSEDTAVYYCARDAMKGDSFFDYWGQGTLVTVSS
B4: 154 (antibody, V domains shown)
VH: QVQLVQSGAEVKKSGASVKVSCKASGYIFTSYYIQWVRQAPGQGLEWMGVINPFDGSTDYAQKFQGRVTVTRDTSTTTVFMELSSLRSEDTAVYYCARDNMLGYVLFDYWGQGTLVTVSS
B5: 158 (antibody, V domains shown)
VH: B4 VH with S14P, I28T, I34M, Q35H, D59N, S75A, E82D
B6: 21 (antibody, V domains shown)
VH: QVQLVQSGAEVRKPGASVKFSCKASGYSFTHYYVHWVRQAPGQGLEWMGVINPFDSSTNYARKFQGRVTMTRDTSTTTVYMDLSSLRSEDTAVYFCARDAMEGDSYFDYWGQGTLVTVSS
B7: 98 (antibody, V domains shown)
VH: QVQLVQSGAEVKKPGASVKVSCKASGYTFTSYYIQWLRQAPGQGLEWMGVINPTGGATNYAQKFQGRVTMTRETSTSMVHMELSSLRSEDTAVYYCARDYMRGYVVFDYWGQGTLVTVSS
B8: 202 (antibody, V domains shown)
VH: QVQLVQSGAEVKNPGASVKFSCKASGYTFINYYLQWLRQAPGQGLEWMGTINPFDGSTSYAQNFQGRVTMTRDTSSTTVYMELNSLKSEDTAVYYCARDSMIGYVLFDSWGQGTLVTVSS
B9: 53 (antibody, V domains shown)
VH: QVQLVQSGAEVKKPGASMTVSCKTSGYTFISYYIHWLRQAPGQGLEWLGVINPFGGATNYAQKFQGRVTMTRDTSTITVYMELSSLRSEDTAVYYCARDAMGGDSHFDFWGQGTLVTVSS
B10: 41 (antibody, V domains shown)
VH: B9 VH with K13E, V20L, Y32N, F109Y
B11: 17 (antibody, V domains shown)
VH: QVQLVQSGAEVKKPGASVRVSCKASGYPFINYYIQWVRQAPGQGLEWMGVVNPYDGSTNYAQKFQGRVSITRDASTSTVFMELNSLRSEDTAVYYCARDSMLGHVIFDFWGQGTLVTVSS
B12: 142 (antibody, V domains shown)
VH: B11 VH with R19M, V20L, P28I, I30T, N31S, A74T
B13: 182 (antibody, V domains shown)
VH: QVQLVQSGAEVKKPGASVKVSCKASGYSFTYSYIQWVRLAPGRGLEWMGVINPYDGSTDYAQKFQGRVTLTRDTSTTTVYMELSSLTSEDTAVYYCARDFMIGYVVFDYWGQGTLVTVSS
B14: 126 (antibody, V domains shown)
VH: QVQLVQSGAEVKKPGASVKVSCKASGYTFNRYYLHWVRQAPGQGLEWMGVINPYDGSTNYAQKFRGRVTMTRDTSTNTVYMELSSLRSEDTAVYFCARDAMEGDSYFDNWGQGTTVTVSS
B15: 122 (antibody, V domains shown)
VH: B14 VH with Q1E, V5L, Q6E, L34I, N59D, G66D, V68I, E82D, Q112R, T115L
B16: 166 (antibody, V domains shown)
VH: B14 VH with Q6E, L34I, Y54S, V68I, T78I, E102G, T115L
B17: 186 (antibody, V domains shown)
VH: B14 VH with L34I, V68I, E82D, F107L, Q112R, T115L
B18: 134 (antibody, V domains shown)
VH: QVQLVQSGAEVKKPGASVEVSCKASGYTFINYYIHWVRQAPGQGLEWMGVINPFDGSTNYAQKFQGRVTVTRDTSTSTVFLDLSSLRPEDTAVYYCARDSMIGYVLFDYWGQGTLVTVSS
B19: 118 (antibody, V domains shown)
VH: QVQLVQSGAEVKKPGASVKVSCKASGYTFTNYYIQWVRQAPGQGLEWMGVINPYDGSTNYAQRFQGKITLTRDTSTTTVYMELSSLGSEDTAVYYCARDYMIGYVVFDYWGQGTMVTVSS
B20: 114 (antibody, V domains shown)
VH: B19 VH with V11M, K19T, K67R, I68V, S75T, Y80N, S85G, G87R, Y109F, M115L
B21: 110 (antibody, V domains shown)
VH: B19 VH with V11M, Q35H, R63K, K67R, I68V, G87R, Y109F, M115L
B22: 66 (antibody, V domains shown)
VH: QVQLVQSGAEVKKPGASVRVSCKASGYTFTNYYIHWVRQAPGHGLTWMGVINPFDSSTDYAQKFQGRVTMTRDTSTSTVYMDLSSLRSEDTAVYYCARDYMRGHVVFDYWGQGTLVTVSS
B23: 94 (antibody, V domains shown)
VH: B22 VH with A16S, R19K, T30N, N31S, H43Q, S56G, H104Y, Q112R

The target of the first test is T1, T8 (Tn-MUC1). Nature of the test: glycopeptide array.
For orientation: EC50 means the midpoint of the concentration-response curve. Take B1: it took 0.124 µg/mL to reach a half-maximal effect (EC50).

Molecule B2 registered a concentration giving a half-maximal response (EC50) of 0.116 µg/mL.

Molecule B3 displayed an EC50 of 0.149 µg/mL. The EC50 values of the last two molecules are within 1.5-fold of each other.

Regarding B4, the EC50 was 0.162 µg/mL.

Molecule B5 returned an EC50 of 0.242 µg/mL.

Regarding B6, a half-maximal response (EC50) required 0.061 µg/mL.

Molecule B7 registered an EC50 of 0.263 µg/mL.

With B8, a half-maximal effect (EC50) was put at 0.125 µg/mL. This EC50 is about 2.1-fold lower than that of the molecule before.

As to B9, the EC50 worked out at 0.122 µg/mL.

In turn, B10 returned an EC50 of 0.114 µg/mL.

B11 came in with an EC50 of 0.104 µg/mL.

Molecule B12 displayed an EC50 of 0.108 µg/mL.

B13 registered an EC50 of 0.098 µg/mL.

In turn, B14 yielded an EC50 of 0.168 µg/mL.

As to B15, the EC50 was 0.121 µg/mL.

As to B16, the concentration for a half-maximal effect (EC50) is 1.85 µg/mL.

Turning to B17, the EC50 came out at 0.203 µg/mL.

B18 came in with a 50% effective concentration (EC50) of 0.113 µg/mL.

With B19, the EC50 was 0.142 µg/mL.

B20 had an EC50 of 0.085 µg/mL.

In turn, B21 returned an EC50 of 0.153 µg/mL. This EC50 lies about 1.8-fold higher than the previous one.

In the case of B22, a half-maximal effect (EC50) was put at 0.123 µg/mL.

In turn, B23 had a concentration giving a half-maximal response (EC50) of 0.033 µg/mL. This EC50 lies about 3.7-fold lower than the previous one.

The target of another test is T2, T4 (Tn-MUC1). The test can be described thus: glycopeptide array.
In turn, B1 showed a 50% effective concentration (EC50) of 0.102 µg/mL.

In the case of B2, the midpoint of the response, the EC50, lay at 0.125 µg/mL.

For the molecule B3, the concentration for a half-maximal effect (EC50) came to 0.127 µg/mL.

For B4, the 50% effective concentration (EC50) stood at 0.13 µg/mL.

In the case of B5, the response was half-maximal at 0.095 µg/mL (EC50).

For the molecule B6, the concentration giving a half-maximal response (EC50) came to 0.051 µg/mL. This EC50 is about 1.9-fold lower than that of the molecule before.

Molecule B7 gave a 50% effective concentration (EC50) of 0.116 µg/mL.

For the molecule B8, the 50% effective concentration (EC50) is 0.104 µg/mL.

Regarding B9, the EC50 came out at 0.112 µg/mL.

Molecule B10 displayed an EC50 of 0.1 µg/mL.

In turn, B11 registered a concentration for a half-maximal effect (EC50) of 0.098 µg/mL.

In the case of B12, the half-maximal effective concentration (EC50) came out at 0.089 µg/mL.

Regarding B13, the concentration giving a half-maximal response (EC50) is 0.093 µg/mL.

With B14, the response was half-maximal at 0.143 µg/mL (EC50).

Molecule B15 yielded an EC50 of 0.108 µg/mL.

With B16, the EC50 was 0.108 µg/mL.

Take B17: the EC50 is 0.118 µg/mL.

Turning to B18, the response was half-maximal at 0.11 µg/mL (EC50). This EC50 and that of the molecule before are within 1.5-fold of each other.

In the case of B19, the EC50 came out at 0.097 µg/mL.

Take B20: the response was half-maximal at 0.087 µg/mL (EC50).

In turn, B21 had an EC50 of 0.127 µg/mL.

In turn, B22 had an EC50 of 0.11 µg/mL. The EC50 values of the last two molecules are within 1.5-fold of each other.

In turn, B23 had an EC50 of 0.034 µg/mL. Against the preceding molecule, the EC50 is about 3.2-fold lower.

Another test has as its target T3, T11 (Tn-MUC1). The test can be described thus: glycopeptide array.
In turn, B1 yielded an EC50 of 0.132 µg/mL.

The molecule B2 registered an EC50 of 0.14 µg/mL. This EC50 and that of the molecule before are within 1.5-fold of each other.

For the molecule B3, the EC50 was 0.161 µg/mL.

On to B4, for which the EC50 stood at 0.196 µg/mL. The EC50 values of the last two molecules are within 1.5-fold of each other.

B5 registered an EC50 of 0.235 µg/mL.

Take B6: a half-maximal response (EC50) required 0.071 µg/mL.

As for B7, the response was half-maximal at 0.395 µg/mL (EC50).

The molecule B8 came in with an EC50 of 0.142 µg/mL. Compared with the last molecule, the EC50 is about 2.8-fold lower.

The molecule B9 registered a 50% effective concentration (EC50) of 0.131 µg/mL.

For B10, a half-maximal effect (EC50) was put at 0.134 µg/mL.

As to B11, the EC50 is 0.126 µg/mL.

On to B12, for which the response was half-maximal at 0.126 µg/mL (EC50).

For the molecule B13, the half-maximal effective concentration (EC50) worked out at 0.11 µg/mL. This EC50 and that of the molecule before are within 1.5-fold of each other.

B14 displayed an EC50 of 0.195 µg/mL. This EC50 is about 1.8-fold higher than that of the molecule before.

Take B15: the concentration for a half-maximal effect (EC50) was 0.133 µg/mL.

B16 displayed a 50% effective concentration (EC50) of 1.68 µg/mL.

In turn, B17 came in with an EC50 of 0.213 µg/mL.

B18: it took 0.131 µg/mL to reach a half-maximal effect (EC50).

B19 yielded an EC50 of 0.143 µg/mL.

The molecule B20 returned an EC50 of 0.09 µg/mL.

As to B21, it took 0.164 µg/mL to reach a half-maximal effect (EC50).

In turn, B22 displayed an EC50 of 0.138 µg/mL.

For B23, the EC50 is 0.04 µg/mL.

The next test addresses T4, T9 (Tn-MUC1). The test can be described thus: glycopeptide array.
In turn, B1 showed an EC50 of 0.12 µg/mL.

B2 registered an EC50 of 0.117 µg/mL.

B3 yielded a concentration giving a half-maximal response (EC50) of 0.151 µg/mL. The EC50 values of the last two molecules are within 1.5-fold of each other.

Turning to B4, a half-maximal effect (EC50) was put at 0.106 µg/mL.

B5 gave a 50% effective concentration (EC50) of 0.088 µg/mL.

For B6, the EC50 is 0.058 µg/mL.

The molecule B7 came in with an EC50 of 0.102 µg/mL.

As to B8, a half-maximal effect (EC50) was put at 0.119 µg/mL.

Take B9: the midpoint of the response, the EC50, lay at 0.126 µg/mL.

Molecule B10 displayed a concentration for a half-maximal effect (EC50) of 0.113 µg/mL. The EC50 values of the last two molecules are within 1.5-fold of each other.

B11 came in with an EC50 of 0.102 µg/mL.

B12 came in with an EC50 of 0.091 µg/mL.

B13 showed an EC50 of 0.085 µg/mL.

B14 came in with an EC50 of 0.153 µg/mL.

For the molecule B15, the response was half-maximal at 0.1 µg/mL (EC50).

For B16, the EC50 was determined as 0.095 µg/mL.

The molecule B17 gave an EC50 of 0.132 µg/mL.

In the case of B18, the EC50 was 0.095 µg/mL.

Consider B19, for which the half-maximal effective concentration (EC50) amounted to 0.102 µg/mL.

In turn, B20 registered an EC50 of 0.076 µg/mL.

In turn, B21 gave an EC50 of 0.139 µg/mL.

B22 yielded an EC50 of 0.123 µg/mL.

For B23, the concentration giving a half-maximal response (EC50) is 0.033 µg/mL.
